Assay results as given in article PMC7371702.
Positions count from the first letter of the chain named. In names and notes the source's numbering stands.

Assays:
[1] = molecular target: YFP-tagged α7 nicotinic acetylcholine receptor (human CHRNA7 with YFP fused into the M3-M4 loop) (human) (UniProt P36544)
[2] = molecular target: YFP-tagged α7 nicotinic acetylcholine receptor (human CHRNA7 with YFP fused into the M3-M4 loop) (human) (UniProt P36544); remark: listed apart in the source

UniProt P36544, sequence (P36544 23-502): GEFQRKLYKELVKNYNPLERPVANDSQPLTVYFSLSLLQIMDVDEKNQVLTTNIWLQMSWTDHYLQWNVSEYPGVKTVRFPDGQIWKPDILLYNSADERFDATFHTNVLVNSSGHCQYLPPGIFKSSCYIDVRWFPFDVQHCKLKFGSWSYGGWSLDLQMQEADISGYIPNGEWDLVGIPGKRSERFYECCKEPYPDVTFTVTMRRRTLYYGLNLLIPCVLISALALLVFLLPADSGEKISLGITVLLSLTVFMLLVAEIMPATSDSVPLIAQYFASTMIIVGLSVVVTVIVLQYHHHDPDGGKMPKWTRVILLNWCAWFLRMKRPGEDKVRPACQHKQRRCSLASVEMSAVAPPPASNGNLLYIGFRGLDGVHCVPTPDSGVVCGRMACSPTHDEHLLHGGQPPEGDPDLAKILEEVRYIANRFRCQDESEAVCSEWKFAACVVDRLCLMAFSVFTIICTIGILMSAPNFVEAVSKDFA

B1: Soluble streptavidin-binding peptide (SBP)-tagged mouse Ly6H (natural protein)
chain: LWCQDCTLANSSHCAPKQCQPTDTVCASVRITDPSSSRKDHSVNKMCASSCDFVKRHFFSDYLMGFINSGILKVDVDCCEKDLCN
inhibition of ligand-evoked α7 nAChR current in TARO cells by exogenously added soluble Ly6H-SBP (2.5 μM) [1]: 14% | inhibitory ratio: post-stimulation peak amplitude divided by pre-stimulation peak amplitude of choline (30 μM) + PNU120596 (1 μM)-evoked current in TARO cells, 2.5 μM soluble protein applied for 3 min [2]: 82.7%

B2: Soluble SBP-tagged mouse Ly6H R38A mutant (natural protein)
chain: B1 chain with R38A
inhibitory ratio: post-stimulation peak amplitude divided by pre-stimulation peak amplitude of choline (30 μM) + PNU120596 (1 μM)-evoked current in TARO cells, 2.5 μM soluble protein applied for 3 min [2]: 100%
